Results from publication doi:10.1101/219402 (bioRxiv, 2017).

Biological target: human CD3 on Jurkat cells (Homo sapiens (endogenous, Jurkat), UniProt P07766;P04234)
Test: flow cytometry on cells

human CD3 on Jurkat cells, sequence (P04234 whole entry, looked up, chain 1 of 2): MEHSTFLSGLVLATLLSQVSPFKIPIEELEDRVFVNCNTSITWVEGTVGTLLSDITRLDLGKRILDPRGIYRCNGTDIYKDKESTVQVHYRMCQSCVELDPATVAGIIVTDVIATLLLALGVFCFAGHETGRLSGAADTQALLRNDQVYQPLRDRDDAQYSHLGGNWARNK
human CD3 on Jurkat cells, sequence (P07766 23-207, looked up, chain 2 of 2): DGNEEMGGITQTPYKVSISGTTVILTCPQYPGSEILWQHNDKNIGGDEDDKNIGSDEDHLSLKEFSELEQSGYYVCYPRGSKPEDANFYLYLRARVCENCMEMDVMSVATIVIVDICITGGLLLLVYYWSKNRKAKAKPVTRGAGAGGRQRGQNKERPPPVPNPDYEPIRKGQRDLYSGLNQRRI

B1: R11 scFv-Fc (homodimeric monospecific anti-ROR1 scFv-Fc) (Fc fusion)
VH: QSVKESEGDLVTPAGNLTLTCTASGSDINDYPISWVRQAPGKGLEWIGFINSGGSTWYASWVKGRFTISRTSTTVDLKMTSLTTDDTATYFCARGYSTYYGDFNIWGPGTLVTISS
VL: ELVMTQTPSSTSGAVGGTVTINCQASQSIDSNLAWFQQKPGQPPTLLIYRASNLASGVPSRFSGSRSGTEYTLTISGVQREDAATYYCLGGVGNVSYRTSFGGGTEVVVK
B1: no binding (tested: 5 μg/mL).
